This assay concerns the target SARS-CoV-2 recombinant spike HexaPro protein (SARS-CoV-2) (UniProt P0DTC2). Briefly: SPR.

By pKd is commonly meant the Kd on a negative log10 scale, so that one unit is a factor of ten.

pKd: −log10 of the molar value.

For the substance “ACE2 monomer construct (SS-ACE2-Linker) (from UniProt Q9BYF1 19-614)”, the pKd was 7.14.

Values taken from patent publication US20250367270A1.
